In paper PMC5155031 one finds Kd data, which are given here for eight molecules.

Test in all cases: dose-dependent binding with Scatchard plot analysis
The target in assay [1] is mIgCLL3-1, CLL-derived monoclonal Igγ1 antibody of clonotype CLL3.
In assay [2] the target is mIgCLL2-1, CLL-derived monoclonal Igγ1 antibody of clonotype CLL2.
For assay [3], the target named is mIgCLL5-2, CLL-derived monoclonal Igγ1 antibody of clonotype CLL5-2.
Assay [4] addresses mIgCLL2-2, CLL-derived monoclonal Igγ1 antibody of clonotype CLL2.
Assay [5] addresses mIgCLL5-1, CLL-derived monoclonal Igγ1 antibody of clonotype CLL5-1.
Assay [6] has as its target mIgCLL3-2, CLL-derived monoclonal Igγ1 antibody of clonotype CLL3.
The target in assay [7] is mIgCLL6-2, CLL-derived monoclonal Igγ1 antibody of clonotype CLL6-2.
Assay [8] addresses mIgCLL6-1, CLL-derived monoclonal Igγ1 antibody of clonotype CLL6-1.

Regarding CPPQSVTEC [pCLL3-1 mimotope], in assay [1], the Kd (in general, a measure of binding affinity in units of concentration) was found to be 22.1 nM. CNTYSVSLC [pCLL2-1 mimotope] showed a Kd in assay [2] of 10.8 nM. This lies in the double-digit nanomolar range.

Take CPPFTNYEC [pCLL5-2 mimotope]: in assay [3], the Kd came to 7.32 nM. In assay [4], CKSYSVSLC [pCLL2-2 mimotope] displayed a Kd of 7.57 nM.

For the molecule CFSDDEWWC [pCLL5-1 mimotope], the Kd in assay [5] was determined as 7.08 nM. With CDVWHSAYC [pCLL3-2 mimotope], the Kd in assay [6] was found to be 5.64 nM. In assay [7], CTTVIPERC [pCLL6-2 mimotope] gave a Kd of 22.7 nM.

The molecule CNQDWHKKC [pCLL6-1 mimotope] gave an equilibrium dissociation constant (Kd) in assay [8] of 57.5 nM.
